Source: paper PMC8219891

Biological target: T1, SPRTN-EQ (catalytically inactive) (UniProt Q9H040 1-489, E112Q)
T1 sequence: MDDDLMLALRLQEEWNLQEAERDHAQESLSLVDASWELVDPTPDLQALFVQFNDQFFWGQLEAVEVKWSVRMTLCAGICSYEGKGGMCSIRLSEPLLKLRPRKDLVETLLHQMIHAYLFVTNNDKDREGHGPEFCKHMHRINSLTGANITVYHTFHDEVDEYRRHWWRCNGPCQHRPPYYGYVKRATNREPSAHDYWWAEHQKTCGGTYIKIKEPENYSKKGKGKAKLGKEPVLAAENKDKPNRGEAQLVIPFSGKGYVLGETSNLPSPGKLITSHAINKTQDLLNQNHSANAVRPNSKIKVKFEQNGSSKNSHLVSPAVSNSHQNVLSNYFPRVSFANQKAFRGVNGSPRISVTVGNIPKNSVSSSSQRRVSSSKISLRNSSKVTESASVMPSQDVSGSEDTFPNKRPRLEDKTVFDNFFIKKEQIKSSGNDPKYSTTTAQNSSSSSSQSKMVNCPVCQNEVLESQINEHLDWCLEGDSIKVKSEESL
Assay: EMSA

B1: Junction-DPC (substrate e) (mixed)
DNA 1: CCCAAAAAAAAAAATAAAAAAAAAAAACCC
DNA 2: GGGTTTTTTTTTTTT
modifications: dT15 of strand 1 covalently conjugated to protein G; strand 1 3'-phosphate
B1: binds.

B2: dsDPC (substrate f) (dsDNA)
DNA 1: CCCAAAAAAAAAAATAAAAAAAAAAAACCC
DNA 2: GGGTTTTTTTTTTTTATTTTTTTTTTTGGG
modifications: dT15 of strand 1 covalently conjugated to protein G; strand 1 3'-phosphate
B2: binds.
